Measurements from patent publication US20070207967A1, “Peptide Inhibitors of Matrix Metalloproteinase Activity” (CTT CANCER TARGETING TECHNOLOGIES OY, priority 2004, published 2007).

Experiments:
[1] = molecular target: trypsin-activated MMP-9 (Homo sapiens, UniProt P14780); assay: Gelatinase inhibition assay (gelatin degradation), MMP-9; type: biochemical; details: biotinylated gelatin substrate
Method: (§1) Gelatinase inhibition assay. Inhibition of aminophenylmercuric acetate (APMA)-activated MMP-2 and trypsin-activated MMP-9 was performed using biotinylated gelatin as a substrate (15).

[2] = molecular target: T1, MMP-9 C domain (Homo sapiens, UniProt P14780); assay: Dimerization of the MMP-9 C domain; type: binding; details: 125I-labelled C domain on unlabelled C domain
T1 construct: MMP-9 (Asp^494-Asp^688) were expressed as described (16); made in house; host or cells: E. coli (β5 fragment)
T1 sequence (P14780 513-707 limits assumed): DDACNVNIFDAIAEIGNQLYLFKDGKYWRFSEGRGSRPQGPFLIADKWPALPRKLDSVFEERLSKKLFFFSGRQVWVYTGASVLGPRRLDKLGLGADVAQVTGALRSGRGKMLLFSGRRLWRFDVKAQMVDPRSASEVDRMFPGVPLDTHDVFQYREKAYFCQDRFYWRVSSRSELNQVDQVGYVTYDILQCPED
Method: Dimerization of the MMP-9 C domain. Recombinant C domain or CBD at a 5 μg/ml concentration in PBS were coated on microtiter wells followed by blocking with 1% BSA-PBST. ^125I-labelled C domain was preincubated with the peptides for 30 minutes in 1% BSA-PBST and then added to the wells. After a 2 hour incubation, the wells were washed. Bound radioactivity was eluted with 1% SDS and measured with a gamma-counter.

[3] = molecular target: pro-MMP-9 (Homo sapiens, UniProt P14780); assay: Plasmin/MMP-3-mediated pro-MMP-9 activation in HT1080 cells, zymography; type: cell-based; details: PDBu-activated HT1080, plasminogen, peptides 200 μM
Sequence of pro-MMP-9 (P14780 20-707 limits assumed): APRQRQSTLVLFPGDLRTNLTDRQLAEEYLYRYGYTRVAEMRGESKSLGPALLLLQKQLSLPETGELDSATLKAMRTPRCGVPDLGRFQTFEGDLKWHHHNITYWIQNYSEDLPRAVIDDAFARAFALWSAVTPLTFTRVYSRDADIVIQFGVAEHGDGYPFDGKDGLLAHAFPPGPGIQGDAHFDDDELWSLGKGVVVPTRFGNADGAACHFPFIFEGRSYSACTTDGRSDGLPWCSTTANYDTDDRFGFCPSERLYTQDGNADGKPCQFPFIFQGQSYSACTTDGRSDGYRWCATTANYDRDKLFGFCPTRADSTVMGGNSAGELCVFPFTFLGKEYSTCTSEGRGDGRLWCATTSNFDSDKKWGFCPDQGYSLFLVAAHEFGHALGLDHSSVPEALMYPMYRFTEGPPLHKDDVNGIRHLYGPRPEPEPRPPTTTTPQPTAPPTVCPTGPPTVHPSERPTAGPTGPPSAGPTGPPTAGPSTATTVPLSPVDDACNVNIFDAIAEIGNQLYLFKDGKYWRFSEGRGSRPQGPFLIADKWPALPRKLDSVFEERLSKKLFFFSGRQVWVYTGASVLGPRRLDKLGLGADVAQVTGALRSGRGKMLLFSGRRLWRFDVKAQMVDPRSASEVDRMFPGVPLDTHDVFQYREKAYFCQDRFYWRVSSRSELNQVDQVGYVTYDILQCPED
Method: (§2) Activation of MMP-9. THP-1 cells (40 000/100 μl) or confluent HT1080 cells were incubated for 16 h in the presence or absence of 2.5 μg/ml plasminogen, 0.5 μg/ml pro-MMP-3 (Oncogene Research Products), 40 nM PDBu, and the peptides at a 200 μM concentration unless otherwise indicated. Aliquots of the conditioned media were analyzed by gelatin zymography (9). […] The samples were analyzed by gelatin zymography.

[4] = system: HT1080 cells; assay: Pericellular proteolysis (gelatinolysis) of HT1080 cells; type: cell-based, human; details: HT1080, 48 h, PDBu, fibronectin/FITC-labelled gelatin coating
Method: Pericellular proteolysis. Microtiter wells were coated with a mixture of fibronectin (10 μg/ml) and FITC-labelled gelatin (100 μg/ml) followed by saturation with 1% BSA in PBS. HT1080 cells (50 000 in 100 μl 0.1% BSA/DMEM) were incubated in the presence of 20 nM PDBu (4β-phorbol-12,13-dibutyrate, SigmaAldrich) and the peptides or the MMP-2/MMP-9 selective inhibitor InhI (Calbiochem). As a control non-activated cells and medium without the cells were used. Gelatinolysis after 48 hours was measured as the increase of fluorescence from a 50 μl aliquot of the conditioned medium using Wallac Victor^2 reader.

[5] = system: HT1080 fibrosarcoma; assay: HT1080 invasion through matrigel; type: cell-based, human; details: 200 μM concentration
Method: (§3) Cell migration and invasion. The cell migration assay was conducted using transwell migration chambers (8 μm pore size, Costar) in 10% serum-containing medium (2,14). Briefly, the membranes were coated on both sides with 40 μg/ml GST or with the β2 integrin ligand peptide […]-GST fusion (GST-LLG-C4) and blocked with complete medium. THP-1 cells (50 000/100 μl) were preincubated with the peptides for 1 h in serum-containing medium. The cells were allowed to migrate for 16 h and were then stained with crystal violet and counted (14). The HT1080 (20 000 cells/I100 μl) invasion assay was performed as the THP-1 migration, except that matrigel coated transwells (BD Biosciences) were used.

[6] = system: pro-MMP-2; assay: Pro-MMP-2 activation in HT1080 cells, zymography; type: cell-based, human; details: PDBu-activated HT1080, peptides 200 μM
Method: as §2

[7] = molecular target: αM integrin I domain (Homo sapiens, UniProt P11215); assay: Pro-MMP-9 binding to αM integrin I domain
Sequence of αM integrin I domain (P11215 150-328 limits assumed): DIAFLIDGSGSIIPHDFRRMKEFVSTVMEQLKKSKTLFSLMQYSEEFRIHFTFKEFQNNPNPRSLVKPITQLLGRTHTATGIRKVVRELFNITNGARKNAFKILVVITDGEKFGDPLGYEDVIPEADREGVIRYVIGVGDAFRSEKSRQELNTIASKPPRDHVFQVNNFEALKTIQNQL
Method: Pro-MMP-9 and gelatin binding to leukocyte αM integrin. Pro-MMP-9 binding to the αM I domain in the presence of peptides was studied as described (12). Gelatin binding to the pro-MMP-^9/αMβ2 integrin complex was studied by immobilizing the integrin αMβ2 (12) or αIIbβ3 as a control (Enzyme Research Laboratories, South Bend, Ind.) (1 μg/well) in TBS/1 mM CaCl2/1 mM MgCl2 followed by saturation of the wells with 1% BSA in PB ST. Pro-MMP-9 (100 ng/well) was incubated for 2 h and the unbound pro-MMP-9 was washed away. Biotinylated gelatin (2.5 μg/ml) was allowed to bind for 30 min at room temperature. Bound gelatin was detected with streptavidin-peroxidase.

[8] = molecular target: T1, MMP-9 C domain; assay: β5 I-EGF2+3 binding assay, MMP-9 C domain
Method: B5 I-EGF2+3 binding assay. MMP-9 C domain, MMP-2 C domain, CBD, β5 I-EGF2+3 or vitronectin (2 μg/ml) were immobilized in microtiter wells. Biotinylated β5 I-EGF2+3 fragment (2.5 μg/ml) was added to the wells which were preincubated with the competitors for 30 min in 1% BSA-PBST and then incubated further for one hour. Bound biotinylated protein was detected with streptavidin-peroxidase.

[9] = molecular target: T2, aminophenylmercuric acetate (APMA)-activated MMP-2 (Homo sapiens, UniProt P08253); assay: Gelatinase inhibition assay (gelatin degradation), MMP-2; type: biochemical; details: biotinylated gelatin substrate
T2 sequence (P08253 110-660): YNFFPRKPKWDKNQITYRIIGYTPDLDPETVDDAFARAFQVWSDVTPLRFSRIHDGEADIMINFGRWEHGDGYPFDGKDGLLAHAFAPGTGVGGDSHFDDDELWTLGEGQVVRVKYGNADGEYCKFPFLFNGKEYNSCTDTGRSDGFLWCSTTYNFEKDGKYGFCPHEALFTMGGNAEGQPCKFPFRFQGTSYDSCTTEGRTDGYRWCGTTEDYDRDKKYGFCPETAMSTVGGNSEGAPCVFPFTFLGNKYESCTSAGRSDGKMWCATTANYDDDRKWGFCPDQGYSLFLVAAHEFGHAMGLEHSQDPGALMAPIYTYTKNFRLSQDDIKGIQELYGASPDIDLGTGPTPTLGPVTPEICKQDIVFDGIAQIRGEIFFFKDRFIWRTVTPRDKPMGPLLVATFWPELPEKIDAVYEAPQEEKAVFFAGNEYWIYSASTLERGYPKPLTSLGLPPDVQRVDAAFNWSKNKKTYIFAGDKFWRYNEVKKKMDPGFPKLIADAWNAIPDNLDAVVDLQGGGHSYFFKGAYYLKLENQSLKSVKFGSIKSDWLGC
Method: as §1

[10] = system: THP-1 monocytic cells; assay: THP-1 cell migration on GST-LLG-C4; type: cell-based, human; details: GST-LLG-C4 substratum, 16 h
Method: as §3

Sequence of trypsin-activated MMP-9 (P14780 107-707 limits assumed): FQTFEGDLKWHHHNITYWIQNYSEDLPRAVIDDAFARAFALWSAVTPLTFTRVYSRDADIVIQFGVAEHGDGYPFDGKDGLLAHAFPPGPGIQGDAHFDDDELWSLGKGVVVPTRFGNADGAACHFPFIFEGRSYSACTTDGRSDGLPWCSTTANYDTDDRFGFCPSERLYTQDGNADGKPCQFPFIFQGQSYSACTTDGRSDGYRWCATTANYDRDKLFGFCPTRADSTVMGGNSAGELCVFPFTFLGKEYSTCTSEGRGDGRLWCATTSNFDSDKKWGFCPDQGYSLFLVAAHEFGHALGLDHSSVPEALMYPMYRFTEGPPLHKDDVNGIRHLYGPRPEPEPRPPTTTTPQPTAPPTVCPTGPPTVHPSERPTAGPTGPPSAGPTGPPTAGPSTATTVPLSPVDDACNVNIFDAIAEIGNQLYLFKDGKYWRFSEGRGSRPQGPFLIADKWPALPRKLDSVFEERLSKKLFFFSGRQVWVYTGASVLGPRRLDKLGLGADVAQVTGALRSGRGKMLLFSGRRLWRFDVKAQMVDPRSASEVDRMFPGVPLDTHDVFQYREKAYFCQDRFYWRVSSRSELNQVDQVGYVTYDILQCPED

CRVYGPYLLC
Inhibition of MMP-9 activity in gelatin degradation assay [1]: did not inhibit
Inhibition of dimerization of the C domain [2]: inhibited
Inhibition of pro-MMP-9 activation [3]: inhibited pro-MMP-9 activation strongly
Inhibition of pericellular gelatinolysis [4]: inhibited
Inhibition of HT1080 invasion into matrigel [5]: 50%
Inhibition of activation of pro-MMP-2 [6]: partially
Effect on interaction of MMP-9 with the leukocyte αM integrin I domain [7]: do not affect
Competition of biotinylated β5 I-EGF2+3 binding to the MMP-9 C domain [8]: inhibitable
Inhibition of MMP-2 activity in gelatin degradation assay [9]: did not inhibit
Inhibition of THP-1 migration [10]: inhibitory effect
